Reference: paper PMC10197516

Target: SARS-CoV-2 spike-protein trimers
Experiment: SEC + other: negative-stain electron microscopy

SARS-CoV-2 spike-protein trimers
stoichiometry N: 3
